What was measured:
[1] = target: Scl-70抗原 (人DNA拓扑异构酶I的C末端片段的70kD分子量蛋白) (human) (UniProt P11387); experiment: chemiluminescence immunoassay on Scl-70-coated magnetic microspheres, ABEI-anti-human IgG; CHO supernatant undiluted
[2] = target: Scl-70抗原 (人DNA拓扑异构酶I的C末端片段的70kD分子量蛋白) (human) (UniProt P11387); experiment: chemiluminescence immunoassay on Scl-70-coated magnetic microspheres, ABEI-anti-human IgG; CHO supernatant diluted 10-fold
[3] = target: Scl-70抗原 (人DNA拓扑异构酶I的C末端片段的70kD分子量蛋白) (human) (UniProt P11387); experiment: chemiluminescence immunoassay on Scl-70-coated magnetic microspheres, ABEI-anti-human IgG; CHO supernatant diluted 30-fold
[4] = target: Scl-70抗原 (人DNA拓扑异构酶I的C末端片段的70kD分子量蛋白) (human) (UniProt P11387); experiment: chemiluminescence immunoassay on Scl-70-coated magnetic microspheres, ABEI-anti-human IgG; CHO supernatant diluted 50-fold
[5] = target: Scl-70抗原 (人DNA拓扑异构酶I的C末端片段的70kD分子量蛋白) (human) (UniProt P11387); experiment: chemiluminescence immunoassay on Scl-70-coated magnetic microspheres, ABEI-anti-human IgG; CHO supernatant diluted 100-fold
[6] = target: Scl-70抗原 (人DNA拓扑异构酶I的C末端片段的70kD分子量蛋白) (human) (UniProt P11387); experiment: chemiluminescence immunoassay on Scl-70-coated magnetic microspheres, ABEI-anti-human IgG; CHO supernatant diluted 150-fold
[7] = target: Scl-70抗原 (人DNA拓扑异构酶I的C末端片段的70kD分子量蛋白) (human) (UniProt P11387); experiment: chemiluminescence immunoassay on Scl-70-coated magnetic microspheres, ABEI-anti-human IgG; CHO supernatant diluted 200-fold

原液RLU [1]	稀释10倍RLU [2]	稀释30倍RLU [3]	稀释50倍RLU [4]	稀释100倍RLU [5]	稀释150倍RLU [6]	稀释200倍RLU [7]	Binder
2e+06 RLU	1.31e+06 RLU	421000 RLU	239000 RLU	129000 RLU	89300 RLU	59200 RLU	抗体5 (实施例15) (antibody, human IgG1, kappa, V domains shown) VH: EIQLVQSGSEVVRTGTSVKLSCKASGYRFTSYWMHWVKQRPGQGLEWIGNINPGDGRTNYDENFKNKATLTVDPSSNTAYMQLNSLTSEDSAVYYCTRDGNYGIFDYWGRGTSVTVSS VL: DIELTQSPSSLVVSAGEKVTLSCKSSQSLLYSSNQKNYLAWFQQKPGQSPKLLIYWASTRGSGVPDRFTGSGSRTDFTLTISSVQAEDMAVYYCHQYIYLWSFGGGTKLEIKR
1.08e+06 RLU	801000 RLU	329000 RLU	177000 RLU	86400 RLU	57600 RLU	43500 RLU	抗体6 (实施例16) (antibody, human IgG1, kappa, V domains shown) VH: EVKLVESGGGLVQPGGSRKLSCAASGFTFSSYWMHWVRQAPEKGLEWVANINPGDGRTNYDENFKNRFTISRDNPENTLFLQMTSLTSEDTAIYYCARRAAYGNYDWYFDVWGAGTTVTVSS VL: NIVMTQSPSSLVVSAGEKVTLSCKSSQSLLYSSNQKNYLAWFQQKPGQSPKLLIYWASTRESGVPDRFTGSGSRTDFTLTISSVQAEDMAVYYCHQYIYLWSFGGGSKLEIER

More lines, now with the values behind:

Binder	原液RLU [1]	稀释10倍RLU [2]	稀释30倍RLU [3]	稀释50倍RLU [4]	稀释100倍RLU [5]	稀释150倍RLU [6]	稀释200倍RLU [7]
抗体1 (实施例11; 2D6抗体) (antibody, human IgG1, kappa, V domains shown) VH: EIQLVQSGSEVVRTGTSVKLSCKASGYRFTSYWMHWVKQRPGQGLEWIGNINPGDGRTNYDENFKNKATLTVDPSSNTAYMQLNSLTSEDSAVYYCTRDGNYGIFDYWGRGTSVTVSS VL: NIVMTQSPSSLVVSAGEKVTLSCKSSQSLLYSSNQKNYLAWFQQKPGQSPKLLIYWASTRESGVPDRFTGSGSRTDFTLTISSVQAEDMAVYYCHQYIYLWSFGGGSKLEIER	1.64e+06 RLU	1.01e+06 RLU	355000 RLU	220000 RLU	140000 RLU	73100 RLU	55400 RLU
抗体4 (实施例14) (antibody, human IgG1, kappa, V domains shown) VH: EVKLVESGGGLVQPGGSRKLSCAASGFTFSSYWMHWVRQAPEKGLEWVAYISSGGITIYYADTVKGRFTISRDNPENTLFLQMTSLTSEDTAIYYCARRAAYGNYDWYFDVWGAGTTVTVSS VL: NIVMTQSPSSLVVSAGEKVTLSCKSSQSLLYSSNQKNYLAWFQQKPGQSPKLLIYWASTRESGVPDRFTGSGSRTDFTLTISSVQAEDMAVYYCHQYIYLWSFGGGSKLEIER	2.46e+06 RLU	1.74e+06 RLU	609000 RLU	379000 RLU	171000 RLU	124000 RLU	85700 RLU
